Results: patent US20030027152, “Generation of diagnostic tools to assay the human LHX3/P-LIM/LIM-3 factor” (Indiana University Advanced Research and Technology …, published 2003)

Assays:
[1] = biological target: T1, GST-ΔLIM pLhx3 (Sus scrofa, UniProt O97581 SEQ:134-383); assay: competition; 200 ng unlabeled mutant did not compete; conditions: tags: N-terminal GST (pGEX-KT)
T1 chain: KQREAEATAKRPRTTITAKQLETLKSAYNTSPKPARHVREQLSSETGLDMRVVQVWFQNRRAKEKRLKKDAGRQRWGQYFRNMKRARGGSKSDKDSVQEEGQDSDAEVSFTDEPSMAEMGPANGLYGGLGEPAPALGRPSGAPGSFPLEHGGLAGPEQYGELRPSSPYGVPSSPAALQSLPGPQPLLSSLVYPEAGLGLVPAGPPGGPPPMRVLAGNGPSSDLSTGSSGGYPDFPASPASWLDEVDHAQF
Procedure: (§1) FIG. 4B is an image depicting an analysis of recombinant porcine pLhx3 protein binding to DNA target sequences. The image depicts electrophoretic mobility shift assay using labeled wild type and mutant oligonucleotides representing the −351 to −324 bp region of the porcine αGSU gene promoter. Probes were incubated with the indicated proteins and competitor DNA and the resulting complexes were separated from free probe (F) by electrophoresis. The panel on the right of the figure was exposed three times as long as the left-hand panel to detect weak binding of GST-pLhx3 to the porcine αGSU binding site (which is indicated by an arrow).

[2] = biological target: T2, hLhx3a-myc (Homo sapiens, UniProt Q9UBR4 SEQ:1-397); assay: EMSA; similar to untagged; more effective than hLhx3b-myc; conditions: tags: C-terminal myc (pcDNA3.1/Myc-His); label: radiolabel
T2 sequence: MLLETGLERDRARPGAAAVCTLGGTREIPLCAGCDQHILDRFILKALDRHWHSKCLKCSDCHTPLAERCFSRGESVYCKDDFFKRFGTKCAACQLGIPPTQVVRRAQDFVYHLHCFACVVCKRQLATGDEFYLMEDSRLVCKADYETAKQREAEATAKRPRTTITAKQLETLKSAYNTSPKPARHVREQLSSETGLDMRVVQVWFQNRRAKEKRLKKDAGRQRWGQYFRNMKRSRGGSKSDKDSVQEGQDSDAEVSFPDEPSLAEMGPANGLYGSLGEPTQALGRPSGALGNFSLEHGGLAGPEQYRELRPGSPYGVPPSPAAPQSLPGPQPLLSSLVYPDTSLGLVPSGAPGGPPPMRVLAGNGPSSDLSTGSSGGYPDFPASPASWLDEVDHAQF
Procedure: (§2) Radiolabeled probes were incubated with the indicated proteins and competitor DNAs and the resulting complexes were separated from free probe (F) by electrophoresis. Lane 1, unprogrammed rabbit reticulocyte lysate as a negative control (lysate); lanes 2-5 (hLhx3a; hLhx3b; hLhx3a-myc; and hLhx36-myc, respectively), reactions contained in vitro translated hLhx3 proteins including isoforms comprising a myc tag epitope. A nonspecific band is noted by an asterisk (*). Human Lhx3 protein/DNA complexes are indicated by an arrow. Lane 6 depicts the lack of binding using GST as a negative control; lanes 7-14 (GST-hLhx3a, more GST-hLhx3a, comp plus hLhx3a, GST-hLhx3b; more GST-hLhx3b, comp plus hLhx3b, GST-hLhx3a, and GST-hLhx36, respectively) depict binding of the DNA probe by recombinant hLhx3 proteins expressed in E. coli. “Comp” denotes reactions containing approximately 1000-fold molar excess of unlabeled binding site as a competitor.
(§3) Without wishing to be bound by any particular theory, mechanisms for the different activities include the possibilities that the a-specific and b-specific domains are trans-activation or trans-repression domains, respectively, or that the a- and b-specific domains mediate interaction with distinct regulatory factors, or that the a- and b-specific domains modulate the DNA binding properties of hLhx3 differently. […]

[3] = biological target: T3, GST (UniProt P08515 P08515:1-218); assay: EMSA; GST negative control; conditions: tags: GST alone, pGEX-KT; label: radiolabel
T3 sequence (P08515 whole entry, canonical isoform, one chain of several): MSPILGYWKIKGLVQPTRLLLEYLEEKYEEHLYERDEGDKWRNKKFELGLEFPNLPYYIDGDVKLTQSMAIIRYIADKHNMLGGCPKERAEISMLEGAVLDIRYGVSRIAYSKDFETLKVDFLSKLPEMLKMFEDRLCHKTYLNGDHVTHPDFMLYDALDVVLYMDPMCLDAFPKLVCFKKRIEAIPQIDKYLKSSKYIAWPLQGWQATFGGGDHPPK
Procedure: (§4) FIG. 18B is an image of a gel depicting an electrophoretic mobility shift assay (EMSA) using Lhx3 consensus binding site (lanes 1-12) or αGSU gene −350 to −323 binding site (lanes 13 and 14) as oligonucleotide probes. Radiolabeled probes were incubated with the indicated proteins and competitor DNAs and the resulting complexes were separated from free probe (F) by electrophoresis. Lane 1, unprogrammed rabbit reticulocyte lysate as a negative control (lysate); lanes 2-5 (hLhx3a; hLhx3b; hLhx3a-myc; and hLhx36-myc, respectively), reactions contained in vitro translated hLhx3 proteins including isoforms comprising a myc tag epitope. A nonspecific band is noted by an asterisk (*). Human Lhx3 protein/DNA complexes are indicated by an arrow. Lane 6 depicts the lack of binding using GST as a negative control; lanes 7-14 (GST-hLhx3a, more GST-hLhx3a, comp plus hLhx3a, GST-hLhx3b; more GST-hLhx3b, comp plus hLhx3b, GST-hLhx3a, and GST-hLhx36, respectively) depict binding of the DNA probe by recombinant hLhx3 proteins expressed in E. coli. “Comp” denotes reactions containing approximately 1000-fold molar excess of unlabeled binding site as a competitor.

[4] = biological target: T4, GST-hLhx3a (Homo sapiens, UniProt Q9UBR4 SEQ:1-397); assay: EMSA; reduced by 1000-fold unlabeled competitor; conditions: tags: N-terminal GST (pGEX-KT); label: radiolabel
T4 sequence: T2 sequence
Procedure: as §4

[5] = biological target: T5, hLhx3a (Homo sapiens, UniProt Q9UBR4 SEQ:1-397); assay: EMSA; binds more effectively than hLhx3b; conditions: label: radiolabel
T5 sequence: T2 sequence
Procedure: as §2, §3

[6] = biological target: T5, hLhx3a; assay: EMSA; in vitro translated; text states more effective than hLhx3b at both sites; conditions: label: radiolabel
Procedure: as §2, §3

[7] = biological target: T4, GST-hLhx3a; assay: EMSA; binds more effectively than GST-hLhx3b; conditions: tags: N-terminal GST (pGEX-KT); label: radiolabel
Procedure: as §4

[8] = biological target: T1, GST-ΔLIM pLhx3; assay: EMSA; affinity relative to full-length GST-pLhx3 (LIM deletion); competed by unlabeled wild type; conditions: tags: N-terminal GST (pGEX-KT); label: radiolabel
Procedure: as §1

[9] = biological target: T3, GST; assay: EMSA; GST negative control; conditions: tags: GST alone, pGEX-KT; label: radiolabel; remark: listed apart in the source
Procedure: as §1

B1: porcine αGSU -351/-324 mutant (dsDNA)
DNA 1: ACATTAGGTACTTGGCGCGCCAAATGTG
DNA 2: CACATTTGGCGCGCCAAGTACCTAATGT
Question: Does B1 bind [1]?
Answer: Result: no binding

B2: Lhx3 consensus binding site (dsDNA)
DNA 1: CAGAAAATTAATTAATTGTAA
DNA 2: TTACAATTAATTAATTTTCTG
Question: Does B2 bind [2]?
Answer: Result: binds

Question: Does B2 bind [3]?
Answer: Result: no binding

Question: Does B2 bind [4]?
Answer: Result: binds

Question: Does B2 bind [5]?
Answer: Result: binds

B3: αGSU -350/-323 (PGBE) (dsDNA)
DNA 1: ACATTAGGTACTTAGCTAATTAAATGTG
DNA 2: CACATTTAATTAGCTAAGTACCTAATGT
Question: Does B3 bind [6]?
Answer: Result: binds

Question: Does B3 bind [7]?
Answer: Result: binds

B4: porcine αGSU -351/-324 wild type (dsDNA)
DNA 1: ACATTAGGTACTTAGCTAATTAAATGTG
DNA 2: CACATTTAATTAGCTAAGTACCTAATGT
Question: B4 was tested. Which binding signal [8] did it give?
Answer: The binding signal was no less than 15 fold.

Question: Does B4 bind [9]?
Answer: Result: no binding
